For 2 substances, growth inhibition of IM-9 cells, growth inhibition of RAMOS cells and fold decrease in binding of 125I-labeled ligand results are on record in patent publication EP1881070A2.

The target of experiment [1] is human zalpha11 receptor (human) (UniProt Q9HBE5). Put plainly: cell-based or functional assay.
For experiment [2] the target is unchanged. Put plainly: 125I-ligand competition on Raji cells, relative to no competitor.
The target is the same in experiment [3]. Put plainly: 125I-ligand competition on BaF3/zalpha11 cells, relative to no competitor.
Experiment [4] shares this target. As to the kind of experiment: 125I-ligand competition on Raji cells, relative to non-specific competitor Interferon Gamma.
For experiment [5] the target is unchanged. As to the kind of experiment: 125I-ligand competition on BaF3/zalpha11 cells, relative to non-specific competitor Interferon Gamma.

Sequence of human zalpha11 receptor (human) (Q9HBE5 20-538 limits assumed): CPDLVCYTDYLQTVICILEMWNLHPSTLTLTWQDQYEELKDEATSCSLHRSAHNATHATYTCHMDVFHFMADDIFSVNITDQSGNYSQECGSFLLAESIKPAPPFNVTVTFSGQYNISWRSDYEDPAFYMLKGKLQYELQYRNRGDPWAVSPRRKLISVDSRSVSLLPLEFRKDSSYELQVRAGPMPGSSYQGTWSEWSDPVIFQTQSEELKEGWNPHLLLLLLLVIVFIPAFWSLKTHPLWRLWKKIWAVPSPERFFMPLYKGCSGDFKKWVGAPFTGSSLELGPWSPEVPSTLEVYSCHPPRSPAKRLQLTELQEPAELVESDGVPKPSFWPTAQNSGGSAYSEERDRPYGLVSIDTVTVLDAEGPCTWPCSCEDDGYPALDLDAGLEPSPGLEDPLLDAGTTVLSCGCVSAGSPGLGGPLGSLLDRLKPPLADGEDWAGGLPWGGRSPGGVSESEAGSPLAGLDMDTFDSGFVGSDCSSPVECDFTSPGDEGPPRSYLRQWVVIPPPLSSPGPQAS
Sequence of human zalpha11 Ligand-saporin immunotoxin conjugate (Q9HBE4 32-162): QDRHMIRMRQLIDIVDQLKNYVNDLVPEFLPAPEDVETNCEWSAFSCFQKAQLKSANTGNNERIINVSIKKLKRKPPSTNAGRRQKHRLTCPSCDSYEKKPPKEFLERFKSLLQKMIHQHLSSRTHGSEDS

In experiment [1], “human zalpha11 Ligand-saporin immunotoxin conjugate” gave a growth inhibition of IM-9 cells at the maximal conjugate concentration (250 ng/ml), Alamar Blue of 79% and a growth inhibition of RAMOS cells at the maximal conjugate concentration (250 ng/ml), Alamar Blue of 65%.
For the substance “purified CHO recombinant human zalpha11 Ligand (huzalpha11L-CHO) (from UniProt Q9HBE4 32-162)”, the fold decrease in binding of 125I-labeled ligand at 250 fold molar excess in experiment [2] worked out at 3.7 fold; in experiment [3] it was 3.06 fold; in experiment [4], 3 fold; in experiment [5], 2 fold.
